# Test results: publication PMC8342710, “Switching at the ribosome: riboswitches need rProteins as modulators to regulate translation”
# B1: ASW14-140, add riboswitch (structured_RNA)
# RNA: GCUUCAUAUAAUCCUAAUGAUAUGGUUUGGGAGUUUCUACCAAGAGCCUUAAACUCUUGAUUAUGAAGUCUGUCGCUUUAUCCGAAAUUUUAUAAAGAGAAGACUCAUGAAUUACUUUGACCUGCCG
# What was measured:
# [1] = target: rS1-depleted 30S ribosomes from E. coli (E. coli (endogenous in strain JE28)) (UniProt P0A7V0); test: MST; labeled 30SΔS1 (30 nM) with a 1:1 dilution series of rS1 (3 µM); 30 min at 25 °C; 25 mM potassium phosphate pH 7.2, 150 mM KCl, 5 mM MgCl2, 5 mM DTT, 0.4 mg/mL BSA, 0.05% Tween20, RNasin
# [2] = target: 30SΔS1 ribosomal subunit (rS1-depleted);ribosomal protein rS1 (Escherichia coli JE28;Vibrio vulnificus CMCP6) (UniProt A0A3Q0L6Y6); test: MST; settings: MST: 25 mM K-phosphate pH 7.2, 150 mM KCl, 5 mM MgCl2, 5 mM DTT, 0.4 mg/mL BSA, 0.05% Tween20, RNasin, 25 °C, EMSA: 25 mM K-phosphate pH 7.2, 75 mM KCl
# ribosomal protein rS1 = ribosomal protein rS1 (Vibrio vulnificus CMCP6, UniProt A0A3Q0L6Y6 1-556); test: NMR; holo (adenine); 1:1 rS1 opens P4 and P5 by 50%; MST: 25 mM K-phosphate pH 7.2, 150 mM KCl, 5 mM MgCl2, 5 mM DTT, 0.4 mg/mL BSA, 0.05% Tween20, RNasin, 25 °C; EMSA: 25 mM K-phosphate pH 7.2, 75 mM KCl, 5 mM DTT, on ice; settings: protein: recombinant; tags: N-terminal His-thioredoxin tag, cleaved by TEV; label: 13C,15N (NMR); riboswitch fold with helices P1-P5
molecule,measurement,setting,value
ribosomal protein rS1 from Vibrio vulnificus (from UniProt A0A3Q0L6Y6 1-556) (natural protein),Kd,[1],0.17 µM
"GCUUCAUAUAAUCCUAAUGAUAUGGUUUGGGAGUUUCUACCAAGAGCCUUAAACUCUUGAUUAUGAAGUCUGUCGCUUUAUCCGAAAUUUUAUAAAGAGAAGACUCAUGAAUUACUUUGACCUGCCG [ASW14-140, Cy5-labeled add riboswitch]",Kd,[2],0.06 µM
B1,binding result,ribosomal protein rS1,binds
